Source: PMC7828395, “Mapping the DNA-Binding Motif of Scabin Toxin, a Guanine Modifying Enzyme from Streptomyces scabies” (Toxins, 2021)

System: Nc1nc2c(ncn2[C@@H]2O[C@H](COP(=O)(O)O)[C@@H](O)[C@H]2O)c(=O)[nH]1
Experiment: purified protein
Conditions: pH 7.9

(Streptomyces scabiei 87.22)
K0.5: 289 ± 18 µM | kcat: >3 s⁻¹
